The target in test [1] is T1, neuropilin 1 (NRP1) on human umbilical vein endothelial cells (HUVEC) (human, UniProt O14786 22-923).
T1 construct: whole, on cells; also called cell-surface NRP1
As to the kind of experiment: flow cytometry, biotinylated VEGF165 (100 ng/ml) on HUVEC, avidin-FITC detection. How it is done: (§1) The results shown in FIGS. 8-12 indicate that oligo(G) can promote the internalization of NRP1 by bridging NRP1 to the scavenger SREC-I receptor on endothelial cells. This should disrupt the binding of the NRP1 ligands Sema3A and VEGF165 to endothelial cells due to receptor internalization. To verify this hypothesis, HUVEC were incubated at 37° C. for 1 hour with or without phosphorothioate G18 (sG18) (4 or 16 μg/ml). Subsequently, the cells were washed and binding of Sema3A/Fc and biotin-labeled VEGF165 tested after incubation at 4° C. for 1 hour. Bound Sema3A/Fc was detected by flow cytometry after staining with FITC-conjugated goat anti-human IgG-Fc; bound VEGF165 was detected by flow cytometry after staining with avidin-FITC.

Test [2] deals with T1, neuropilin 1 (NRP1) on human umbilical …. Briefly: flow cytometry, Sema3A/Fc (2 µg/ml) on HUVEC, anti-human IgG Fc detection. How it is done:
as §1

T1 sequence (O14786 22-923): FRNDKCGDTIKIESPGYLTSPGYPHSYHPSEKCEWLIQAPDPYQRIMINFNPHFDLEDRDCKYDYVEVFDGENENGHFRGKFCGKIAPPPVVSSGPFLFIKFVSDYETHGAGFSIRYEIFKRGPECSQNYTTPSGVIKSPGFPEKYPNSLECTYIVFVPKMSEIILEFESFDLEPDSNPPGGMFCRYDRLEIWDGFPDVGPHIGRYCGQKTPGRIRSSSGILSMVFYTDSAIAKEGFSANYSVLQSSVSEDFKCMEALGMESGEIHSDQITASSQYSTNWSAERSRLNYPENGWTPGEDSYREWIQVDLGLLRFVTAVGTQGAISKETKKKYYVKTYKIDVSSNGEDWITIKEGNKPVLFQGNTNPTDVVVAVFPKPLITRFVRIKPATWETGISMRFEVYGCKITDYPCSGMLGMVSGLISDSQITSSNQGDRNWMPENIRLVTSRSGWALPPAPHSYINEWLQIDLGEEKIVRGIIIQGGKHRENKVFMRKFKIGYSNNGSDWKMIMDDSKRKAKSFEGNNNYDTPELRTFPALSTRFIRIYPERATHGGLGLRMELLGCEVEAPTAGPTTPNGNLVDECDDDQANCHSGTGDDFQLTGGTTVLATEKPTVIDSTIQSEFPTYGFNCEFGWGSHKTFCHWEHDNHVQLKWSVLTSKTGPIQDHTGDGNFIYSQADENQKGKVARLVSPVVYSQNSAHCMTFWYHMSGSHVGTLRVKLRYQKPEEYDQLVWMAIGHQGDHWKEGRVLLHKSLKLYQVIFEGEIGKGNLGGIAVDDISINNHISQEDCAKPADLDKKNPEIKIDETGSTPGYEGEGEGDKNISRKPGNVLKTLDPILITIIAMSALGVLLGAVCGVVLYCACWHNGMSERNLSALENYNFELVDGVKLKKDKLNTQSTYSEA

B1: Recombinant human VEGF165 (biotinylated) (ligand, UniProt P15692-4 27-191, looked up)
chain: APMAEGGGQNHHEVVKFMDVYQRSYCHPIETLVDIFQEYPDEIEYIFKPSCVPLMRCGGCCNDEGLECVPTEESNITMQIMRIKPHQGQHIGEMSFLQHNKCECRPKKDRARQENPCGPCSERRKHLFVQDPQTCKCSCKNTDSRCKARQLELNERTCRCDKPRR
modifications: biotinylated (sites not given)
notes: Commercial reagent (R&D Systems); also called biotin-VEGF165; biotin-labeled VEGF165
Consider B1, for which the binding result in test [1] is listed as “binds”.

B2: human Sema3A/Fc (Fc fusion, UniProt Q14563 26-771, looked up)
chain: KNNVPRLKLSYKEMLESNNVITFNGLANSSSYHTFLLDEERSRLYVGAKDHIFSFDLVNIKDFQKIVWPVSYTRRDECKWAGKDILKECANFIKVLKAYNQTHLYACGTGAFHPICTYIEIGHHPEDNIFKLENSHFENGRGKSPYDPKLLTASLLIDGELYSGTAADFMGRDFAIFRTLGHHHPIRTEQHDSRWLNDPKFISAHLISESDNPEDDKVYFFFRENAIDGEHSGKATHARIGQICKNDFGGHRSLVNKWTTFLKARLICSVPGPNGIDTHFDELQDVFLMNFKDPKNPVVYGVFTTSSNIFKGSAVCMYSMSDVRRVFLGPYAHRDGPNYQWVPYQGRVPYPRPGTCPSKTFGGFDSTKDLPDDVITFARSHPAMYNPVFPMNNRPIVIKTDVNYQFTQIVVDRVDAEDGQYDVMFIGTDVGTVLKVVSIPKETWYDLEEVLLEEMTVFREPTAISAMELSTKQQQLYIGSTAGVAQLPLHRCDIYGKACAECCLARDPYCAWDGSACSRYFPTAKRRTRRQDIRNGDPLTHCSDLHHDNHHGHSPEERIIYGVENSSTFLECSPKSQRALVYWQFQRRNEERKEEIRVDDHIIRTDQGLLLRSLQQKDSGNYLCHAVEHGFIQTLLKVTLEVIDTEHLEELLHKDDDGDGSKTKEMSNSMTPSQKVWYRDFMQLINHPNLNTMDEFCEQVWKRDRKQRRQRPGHTPGNSNKWKHLQENKKGRNRRTHEFERAPRSV
notes: Commercial reagent (R&D Systems); not shown: Fc portion
B2: the binding result in test [2] is on record as “binds”.
